Data from US20110142849A1 (IRM, published 2011).

Key:
Assay in all cases: specificity ELISA on coated antigen (88 ng per well), antibody at 2 µg/mL, ABS650
[1] = biological target: T1, hAgr2 (human, UniProt O95994)
T1 construct: panel antigen of the specificity ELISA
T1 sequence (antigen, looked up): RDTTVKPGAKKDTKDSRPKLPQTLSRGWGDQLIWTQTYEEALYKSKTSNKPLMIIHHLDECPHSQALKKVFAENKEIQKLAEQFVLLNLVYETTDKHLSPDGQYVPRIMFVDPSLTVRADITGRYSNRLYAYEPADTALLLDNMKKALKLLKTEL
Method: (§1) For specificity ELISAs on purified human and mouse IgGs, a 384-well plate was coated with a panel of purified human or mouse antigens at 88 ng per well and incubated overnight at 4° C. The plate was blocked and washed as described above, then 22 μL of purified mouse or human anti-PCSK9 antibody diluted to 2 μg/mL in PBS was added to each well. The plate was incubated for 1 hr at 37° C. then washed with PBST. Anti-mouse Fc antibody (Jackson ImmunoResearch Labs #115-035-071) or anti-human kappa antibody (Sigma #A7164) conjugated to HRP was diluted 1:5000 in PBS (25 μL) and added to each well. The plate was incubated for 1 hr at room temperature, then washed and developed as described above.
(§2) In order to test whether the antigen specificity of the parental mouse antibody LFU720 was retained in the final Humaneered™ IgGs, LGT209, LGT210 and LGT211, binding of the antibodies to a panel of human and mouse antigens (as well as human PCSK9) was tested in an ELISA assay.

[2] = biological target: T2, hTrkB (human, UniProt Q16620)
T2 construct: panel antigen of the specificity ELISA
T2 sequence (Q16620 32-430 limits assumed): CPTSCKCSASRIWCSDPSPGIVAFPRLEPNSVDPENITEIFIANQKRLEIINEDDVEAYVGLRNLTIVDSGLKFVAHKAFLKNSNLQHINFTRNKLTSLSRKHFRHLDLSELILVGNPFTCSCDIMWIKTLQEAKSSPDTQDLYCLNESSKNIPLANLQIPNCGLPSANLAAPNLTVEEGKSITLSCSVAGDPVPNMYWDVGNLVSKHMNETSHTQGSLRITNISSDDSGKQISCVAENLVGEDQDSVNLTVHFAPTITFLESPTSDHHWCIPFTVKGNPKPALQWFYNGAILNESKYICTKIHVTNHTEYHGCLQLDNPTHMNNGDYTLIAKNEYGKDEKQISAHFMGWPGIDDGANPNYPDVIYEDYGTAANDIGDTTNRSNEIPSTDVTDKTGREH
Method: as §1, §2

[3] = biological target: T3, hDDR1 (human, UniProt Q08345)
T3 construct: panel antigen of the specificity ELISA
T3 sequence (Q08345 21-416 limits assumed): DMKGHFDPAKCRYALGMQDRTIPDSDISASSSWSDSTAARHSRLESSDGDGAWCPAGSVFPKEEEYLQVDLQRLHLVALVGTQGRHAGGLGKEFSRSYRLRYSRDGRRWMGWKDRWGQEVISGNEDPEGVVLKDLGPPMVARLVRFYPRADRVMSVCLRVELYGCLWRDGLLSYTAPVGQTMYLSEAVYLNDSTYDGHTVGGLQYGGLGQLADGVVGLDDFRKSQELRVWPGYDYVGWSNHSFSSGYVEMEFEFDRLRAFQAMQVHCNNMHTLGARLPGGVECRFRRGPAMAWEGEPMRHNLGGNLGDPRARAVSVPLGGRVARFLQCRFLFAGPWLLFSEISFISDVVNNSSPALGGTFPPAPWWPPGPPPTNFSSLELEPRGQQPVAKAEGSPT
Method: as §1, §2

[4] = biological target: T4, hFGFR4 (human, UniProt P22455)
T4 construct: panel antigen of the specificity ELISA
T4 sequence (antigen, looked up): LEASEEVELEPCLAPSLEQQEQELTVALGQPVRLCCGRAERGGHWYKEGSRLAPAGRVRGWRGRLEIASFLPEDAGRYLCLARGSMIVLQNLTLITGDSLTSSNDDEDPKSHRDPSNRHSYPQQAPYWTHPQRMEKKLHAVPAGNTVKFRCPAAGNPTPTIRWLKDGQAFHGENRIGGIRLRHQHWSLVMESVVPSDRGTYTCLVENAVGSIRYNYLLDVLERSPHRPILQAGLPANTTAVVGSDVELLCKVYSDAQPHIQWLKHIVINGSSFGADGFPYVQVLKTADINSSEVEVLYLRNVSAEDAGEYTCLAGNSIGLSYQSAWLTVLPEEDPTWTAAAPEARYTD
Method: as §1, §2

[5] = biological target: T5, hGITR (human, UniProt Q9Y5U5)
T5 construct: panel antigen of the specificity ELISA
T5 sequence (antigen, looked up): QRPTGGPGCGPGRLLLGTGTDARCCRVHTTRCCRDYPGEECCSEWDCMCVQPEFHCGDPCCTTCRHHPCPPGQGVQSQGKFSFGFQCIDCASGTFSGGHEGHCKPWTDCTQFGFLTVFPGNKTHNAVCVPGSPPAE
Method: as §1, §2

[6] = biological target: T6, hIL-12RB1 (human, UniProt P42701)
T6 construct: panel antigen of the specificity ELISA
Method: as §1, §2

[7] = biological target: T7, hNotch-3 NRR (human, UniProt Q9UM47)
T7 construct: panel antigen of the specificity ELISA
T7 sequence (antigen, looked up): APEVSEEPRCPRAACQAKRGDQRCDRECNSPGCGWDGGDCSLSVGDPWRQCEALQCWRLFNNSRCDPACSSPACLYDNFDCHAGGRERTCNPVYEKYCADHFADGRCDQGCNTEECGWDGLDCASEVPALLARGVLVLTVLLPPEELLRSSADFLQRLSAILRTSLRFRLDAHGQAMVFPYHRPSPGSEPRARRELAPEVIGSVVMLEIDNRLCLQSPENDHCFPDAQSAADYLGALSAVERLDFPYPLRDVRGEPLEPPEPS
Method: as §1, §2

[8] = biological target: T8, hRspo-2 (human, UniProt Q6UXX9)
T8 construct: panel antigen of the specificity ELISA
T8 sequence (Q6UXX9 22-243 limits assumed): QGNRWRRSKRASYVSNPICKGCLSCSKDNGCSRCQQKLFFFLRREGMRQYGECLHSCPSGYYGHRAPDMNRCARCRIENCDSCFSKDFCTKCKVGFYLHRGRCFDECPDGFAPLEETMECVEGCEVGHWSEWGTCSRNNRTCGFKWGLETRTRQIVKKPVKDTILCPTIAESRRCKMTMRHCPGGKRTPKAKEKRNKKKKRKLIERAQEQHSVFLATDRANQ
Method: as §1, §2

Measured: binding result

B1: NVP-LGT211 (antibody, human IgG1, V domains shown)
VH: QVQLVQSGAEVKKPGASVKVSCKASGYTFSTMYMSWVRQAPGQGLEWMGRIDPANEHTNYAQKFQGRVTMTRDTSISTAYMELSRLTSDDTAVYYCARSYYYYAMDYWGQGTLVTVSS
VL: QIVLTQSPATLSVSPGERATLSCRASQSVSYMHWYQQKPGQAPRLLIYGVFRRATGIPDRFSGSGSGTDFTLTIGRLEPEDFAVYYCLQWSSDPPTFGQGTKLEIKR
notes: Silent human IgG1 kappa; also called pSR74 (Vh) + pJG10 (Vk); pSR074 + pJG10
no binding (tested: 2 µg/mL): all assays above

B2: NVP-LFU720 (antibody, V domains shown)
VH: EVQLQQSGAELMKPGASVKLSCTASGFNIKDMYMSWVRQRPEQGLEWIGRIDPANGHTNYDPKFQAKATITTDTSSKTAYLHLSSLTSEDTAVYYCARSYYYYAMDYWGQGTSVTVSS
VL: QIVLTQSPAIMSASPGEKVTMTCSASSSVSYMHWYQQKPGSSPRLWIYLTFNLASGVPARFSGSGSGTSYSLSISSMEAEDAATYYCLQWSSDPPTFGSGTKLEIK
notes: Murine anti-human Pcsk9 IgG1-kappa monoclonal antibody from a hybridoma; also called 5P20; NVP-LFU720-AX-1
no binding (tested: 2 µg/mL): all assays above
